Data taken from paper PMC6724696 (Molecular Biology of the Cell, 2019).
Where two headings read alike, the source gives them in different places. Where no end group is shown, it is not given here.

Columns and labels:
Assay in all cases: crystal structure
crystal structure [1] = biological target: the molecule itself
crystal structure [2] = biological target: the molecule itself; remark: listed apart in the source
crystal structure [3] = biological target: the molecule itself; remark: listed apart in the source

SDQDSRLKAIERELEVLTNYVMRSEDGNNDR (domain or fragment, Saccharomyces cerevisiae, UniProt P36094 181-211, looked up) [3H5I-Spc42^181–211 T193E,S195E]
stoichiometry N (crystal structure [1]): 3

B1: H6-Spc42^11–130-3K2N (SeMet) (domain or fragment, Saccharomyces cerevisiae, UniProt P36094 11-130, looked up)
chain: SSKSSRLYDDYYNIPYQYSNPTPMNRDYNDVGSRINADKLVPEEYKRNTEFINKAVQQNKELNFKLREKQNEIFELKKIAETLRSKLEKYVDITKKLEDQNLNLQIKISDLEKKLSDANS
modifications: selenomethionine (SeMet)
binding result (crystal structure [2]): binds

B2: Spc42^246–305 (domain or fragment, Saccharomyces cerevisiae, UniProt P36094 246-305, looked up)
chain: SDDDIMMYESAELKRVEEEIEELKRKILVRKKHDLRKLSLNNQLQELQSMMDGDDNIKLD
modifications: also: selenomethionine (SeMet) in the crystals
stoichiometry N (crystal structure [3]): 2
